Assay results reported in patent publication US20210179716A1 (Pfizer, published 2021).

How the values were obtained:
human CD47 protein = molecular target: T1, human CD47 protein (human, UniProt Q08722 19-139, limits assumed); assay: KD; method not stated
T1 construct: Soluble protein used for the KD measurements; construct not described; also called hCD47; CD47 (human)

cynomolgus CD47 protein = molecular target: T2, cynomolgus CD47 protein (cynomolgus monkey, UniProt A0A2K5X523 19-139); assay: KD; method not stated
T2 construct: also called cyCD47; Cyno CD47

T1 sequence (Q08722 19-139 limits assumed): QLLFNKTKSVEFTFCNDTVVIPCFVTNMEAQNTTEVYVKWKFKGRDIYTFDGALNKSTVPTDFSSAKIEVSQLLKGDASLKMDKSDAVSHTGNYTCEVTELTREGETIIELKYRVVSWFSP

Binder | Kd (human CD47 protein) | Kd (cynomolgus CD47 protein)
P1A11_D99E (antibody, V domains shown, Variant of P01A11) VH: QVQLVQSGAEVKKPGSSVKVSCKASGYTFTNYAISWVRQAPGQGLEWMGGISPLFGTANYAQKFQGRVTITADESTSTAYMELSSLRSEDTAVYYCAREGGRSSDVGWYVGAMDVWGQGTLVTVSS VL: not shown | 1.2 µM | > 1.5 µM
P01A11_T30S_N31S_L54I_G100A (antibody, V domains shown, Variant of P01A11) VH: QVQLVQSGAEVKKPGSSVKVSCKASGYTFSSYAISWVRQAPGQGLEWMGGISPIFGTANYAQKFQGRVTITADESTSTAYMELSSLRSEDTAVYYCARDAGRSSDVGWYVGAMDVWGQGTLVTVSS VL: not shown | 0.097 µM | 0.138 µM
P01A11_P53G_D105E (antibody, V domains shown, Variant of P01A11) VH: QVQLVQSGAEVKKPGSSVKVSCKASGYTFTNYAISWVRQAPGQGLEWMGGISGLFGTANYAQKFQGRVTITADESTSTAYMELSSLRSEDTAVYYCARDGGRSSEVGWYVGAMDVWGQGTLVTVSS VL: not shown | 0.241 µM | 0.351 µM
P01A11_G100V (antibody, V domains shown, Variant of P01A11) VH: QVQLVQSGAEVKKPGSSVKVSCKASGYTFTNYAISWVRQAPGQGLEWMGGISPLFGTANYAQKFQGRVTITADESTSTAYMELSSLRSEDTAVYYCARDVGRSSDVGWYVGAMDVWGQGTLVTVSS VL: not shown | > 1.5 µM | > 1.5 µM
P01A11_T30S_N31S_L54I_G100A_M113I (antibody, V domains shown, Variant of P01A11) VH: QVQLVQSGAEVKKPGSSVKVSCKASGYTFSSYAISWVRQAPGQGLEWMGGISPIFGTANYAQKFQGRVTITADESTSTAYMELSSLRSEDTAVYYCARDAGRSSDVGWYVGAIDVWGQGTLVTVSS VL: not shown | 0.075 µM | 0.105 µM
P1A11_G100Q (antibody, V domains shown, Variant of P01A11) VH: QVQLVQSGAEVKKPGSSVKVSCKASGYTFTNYAISWVRQAPGQGLEWMGGISPLFGTANYAQKFQGRVTITADESTSTAYMELSSLRSEDTAVYYCARDQGRSSDVGWYVGAMDVWGQGTLVTVSS VL: not shown | > 1.5 µM | > 1.5 µM
P1A11_S52I (antibody, V domains shown, Variant of P01A11) VH: QVQLVQSGAEVKKPGSSVKVSCKASGYTFTNYAISWVRQAPGQGLEWMGGIIPLFGTANYAQKFQGRVTITADESTSTAYMELSSLRSEDTAVYYCARDGGRSSDVGWYVGAMDVWGQGTLVTVSS VL: not shown | 1.31 µM | > 1.5 µM
P01A11_P53G_D114E (antibody, V domains shown, Variant of P01A11) VH: QVQLVQSGAEVKKPGSSVKVSCKASGYTFTNYAISWVRQAPGQGLEWMGGISGLFGTANYAQKFQGRVTITADESTSTAYMELSSLRSEDTAVYYCARDGGRSSDVGWYVGAMEVWGQGTLVTVSS VL: not shown | 0.3 µM | 0.52 µM
P01A11_T30S_N31S_L54I_G100A_M113L (antibody, V domains shown, Variant of P01A11) VH: QVQLVQSGAEVKKPGSSVKVSCKASGYTFSSYAISWVRQAPGQGLEWMGGISPIFGTANYAQKFQGRVTITADESTSTAYMELSSLRSEDTAVYYCARDAGRSSDVGWYVGALDVWGQGTLVTVSS VL: not shown | 0.106 µM | 0.12 µM
P01A11_D105E (antibody, V domains shown, Variant of P01A11) VH: QVQLVQSGAEVKKPGSSVKVSCKASGYTFTNYAISWVRQAPGQGLEWMGGISPLFGTANYAQKFQGRVTITADESTSTAYMELSSLRSEDTAVYYCARDGGRSSEVGWYVGAMDVWGQGTLVTVSS VL: not shown | 0.048 µM | 0.062 µM

The next binders have a lower Kd (human CD47 protein) than those just listed; values first:

Kd (human CD47 protein) | Kd (cynomolgus CD47 protein) | Binder
0.038 µM | 0.045 µM | P01A11_L54A_R102A (antibody, V domains shown, Variant of P01A11) VH: QVQLVQSGAEVKKPGSSVKVSCKASGYTFTNYAISWVRQAPGQGLEWMGGISPAFGTANYAQKFQGRVTITADESTSTAYMELSSLRSEDTAVYYCARDGGASSDVGWYVGAMDVWGQGTLVTVSS VL: not shown
0.0085 µM | 0.011 µM | P1A11_G100A (antibody, V domains shown, Variant of P01A11) VH: QVQLVQSGAEVKKPGSSVKVSCKASGYTFTNYAISWVRQAPGQGLEWMGGISPLFGTANYAQKFQGRVTITADESTSTAYMELSSLRSEDTAVYYCARDAGRSSDVGWYVGAMDVWGQGTLVTVSS VL: not shown
0.028 µM | 0.036 µM | P1A11_G100S (antibody, V domains shown, Variant of P01A11) VH: QVQLVQSGAEVKKPGSSVKVSCKASGYTFTNYAISWVRQAPGQGLEWMGGISPLFGTANYAQKFQGRVTITADESTSTAYMELSSLRSEDTAVYYCARDSGRSSDVGWYVGAMDVWGQGTLVTVSS VL: not shown
0.00069 µM | 0.0013 µM | P1A11_L54I (antibody, V domains shown, Variant of P01A11) VH: QVQLVQSGAEVKKPGSSVKVSCKASGYTFTNYAISWVRQAPGQGLEWMGGISPIFGTANYAQKFQGRVTITADESTSTAYMELSSLRSEDTAVYYCARDGGRSSDVGWYVGAMDVWGQGTLVTVSS VL: not shown
0.019 µM | 0.016 µM | P01A11_L54A_S104E (antibody, V domains shown, Variant of P01A11) VH: QVQLVQSGAEVKKPGSSVKVSCKASGYTFTNYAISWVRQAPGQGLEWMGGISPAFGTANYAQKFQGRVTITADESTSTAYMELSSLRSEDTAVYYCARDGGRSEDVGWYVGAMDVWGQGTLVTVSS VL: not shown
0.007 µM | 0.0093 µM | P1A11_N31S (antibody, V domains shown, Variant of P01A11) VH: QVQLVQSGAEVKKPGSSVKVSCKASGYTFTSYAISWVRQAPGQGLEWMGGISPLFGTANYAQKFQGRVTITADESTSTAYMELSSLRSEDTAVYYCARDGGRSSDVGWYVGAMDVWGQGTLVTVSS VL: not shown
0.0018 µM | 0.0025 µM | P1A11_T30S (antibody, V domains shown, Variant of P01A11) VH: QVQLVQSGAEVKKPGSSVKVSCKASGYTFSNYAISWVRQAPGQGLEWMGGISPLFGTANYAQKFQGRVTITADESTSTAYMELSSLRSEDTAVYYCARDGGRSSDVGWYVGAMDVWGQGTLVTVSS VL: not shown
0.031 µM | 0.046 µM | P01A11_L54A_D114E (antibody, V domains shown, Variant of P01A11) VH: QVQLVQSGAEVKKPGSSVKVSCKASGYTFTNYAISWVRQAPGQGLEWMGGISPAFGTANYAQKFQGRVTITADESTSTAYMELSSLRSEDTAVYYCARDGGRSSDVGWYVGAMEVWGQGTLVTVSS VL: not shown
0.00086 µM | 0.0012 µM | P1A11_M113L (antibody, V domains shown, Variant of P01A11) VH: QVQLVQSGAEVKKPGSSVKVSCKASGYTFTNYAISWVRQAPGQGLEWMGGISPLFGTANYAQKFQGRVTITADESTSTAYMELSSLRSEDTAVYYCARDGGRSSDVGWYVGALDVWGQGTLVTVSS VL: not shown
0.0027 µM | 0.0033 µM | P1A11_F55L (antibody, V domains shown, Variant of P01A11) VH: QVQLVQSGAEVKKPGSSVKVSCKASGYTFTNYAISWVRQAPGQGLEWMGGISPLLGTANYAQKFQGRVTITADESTSTAYMELSSLRSEDTAVYYCARDGGRSSDVGWYVGAMDVWGQGTLVTVSS VL: not shown
0.0029 µM | 0.0037 µM | P1A11_M113I (antibody, V domains shown, Variant of P01A11) VH: QVQLVQSGAEVKKPGSSVKVSCKASGYTFTNYAISWVRQAPGQGLEWMGGISPLFGTANYAQKFQGRVTITADESTSTAYMELSSLRSEDTAVYYCARDGGRSSDVGWYVGAIDVWGQGTLVTVSS VL: not shown
0.0056 µM | 0.0076 µM | P01A11_P53G (antibody, V domains shown, Variant of P01A11) VH: QVQLVQSGAEVKKPGSSVKVSCKASGYTFTNYAISWVRQAPGQGLEWMGGISGLFGTANYAQKFQGRVTITADESTSTAYMELSSLRSEDTAVYYCARDGGRSSDVGWYVGAMDVWGQGTLVTVSS VL: not shown
